Measurements as given in publication PMC9276669, “Purification, characterization, and preliminary serial crystallography diffraction advances structure determination of full-length human particulate guanylyl cyclase A receptor” (Scientific Reports, 2022).
Where “and” joins values, the source holds several entries; their conditions need not be identical. Identical values can stand only once.

Target: the molecule itself
Assay: SEC; Superose 6 Increase 10/300 GL, 50 mM HEPES-NaOH pH 7.5, 150 mM NaCl, 5 mM DTT, 10% glycerol, 0.05% DDM, 0.01% CHS, 4 °C; more concentrated injected sample (about 300 uL); sizes by comparison with five standard proteins; monomer to tetramer

B1: full-length human particulate guanylyl cyclase A receptor (pGC-A) (receptor, UniProt P16066 33-1061, looked up)
chain: GNLTVAVVLPLANTSYPWSWARVGPAVELALAQVKARPDLLPGWTVRTVLGSSENALGVCSDTAAPLAAVDLKWEHNPAVFLGPGCVYAAAPVGRFTAHWRVPLLTAGAPALGFGVKDEYALTTRAGPSYAKLGDFVAALHRRLGWERQALMLYAYRPGDEEHCFFLVEGLFMRVRDRLNITVDHLEFAEDDLSHYTRLLRTMPRKGRVIYICSSPDAFRTLMLLALEAGLCGEDYVFFHLDIFGQSLQGGQGPAPRRPWERGDGQDVSARQAFQAAKIITYKDPDNPEYLEFLKQLKHLAYEQFNFTMEDGLVNTIPASFHDGLLLYIQAVTETLAHGGTVTDGENITQRMWNRSFQGVTGYLKIDSSGDRETDFSLWDMDPENGAFRVVLNYNGTSQELVAVSGRKLNWPLGYPPPDIPKCGFDNEDPACNQDHLSTLEVLALVGSLSLLGILIVSFFIYRKMQLEKELASELWRVRWEDVEPSSLERHLRSAGSRLTLSGRGSNYGSLLTTEGQFQVFAKTAYYKGNLVAVKRVNRKRIELTRKVLFELKHMRDVQNEHLTRFVGACTDPPNICILTEYCPRGSLQDILENESITLDWMFRYSLTNDIVKGMLFLHNGAICSHGNLKSSNCVVDGRFVLKITDYGLESFRDLDPEQGHTVYAKKLWTAPELLRMASPPVRGSQAGDVYSFGIILQEIALRSGVFHVEGLDLSPKEIIERVTRGEQPPFRPSLALQSHLEELGLLMQRCWAEDPQERPPFQQIRLTLRKFNRENSSNILDNLLSRMEQYANNLEELVEERTQAYLEEKRKAEALLYQILPHSVAEQLKRGETVQAEAFDSVTIYFSDIVGFTALSAESTPMQVVTLLNDLYTCFDAVIDNFDVYKVETIGDAYMVVSGLPVRNGRLHACEVARMALALLDAVRSFRIRHRPQEQLRLRIGIHTGPVCAGVVGLKMPRYCLFGDTVNTASRMESNGEALKIHLSSETKAVLEEFGGFELELRGDVEMKGKGKVRTYWLLGERGSSTRG
notes: transmembrane domain at residues 474-495; no TEV cleavage step is described; Found as monomer and as tetramer, depending on protein concentration; also called Particulate Guanylyl Cyclase Receptor A; natriuretic peptide receptor A; source: also on whole transfected Sf9 cells
stoichiometry N: 4 and 2
